{
  "source": "patent US20210063414A1",
  "about": "“METHODS FOR PREVENTING AND/OR TREATING BONE LOSS CONDITIONS BY MODULATING IRISIN” (Dana-Farber Cancer Institute, Inc., priority 2018, published 2021)",
  "molecules": {"B1": {"name": "irisin: secreted cleaved form of FNDC5; recombinant human/mouse irisin with C-terminal his tag produced in HEK293 cells (protein)", "chain": "DSPSAPVNVTVRHLKANSAVVSWDVLEDEVVIGFAISQQKKDVRMLRFIQEVNTTTRSCALWDLEEDTEYIVHVQAISIQGQSPASEPVLFKTPREAEKMASKNKDEVTMKE", "modifications": "left off: small tags and cut ends", "notes": "secreted cleaved form of FNDC5; recombinant human/mouse irisin with C-terminal his tag produced in HEK293 cells"}},
  "system": "sclerostin mRNA in MLO-Y4 cells",
  "test": "Sclerostin mRNA in MLO-Y4 cells, qRT-PCR",
  "assay_type": "cell-based, mouse",
  "conditions": "MLO-Y4, irisin 16 hours",
  "procedure": "Cells were stained with Hoechst 33342 and Eth-D1, and analyzed to determine the percentage of cell death. *: p<0.05, ***: p<0.001 vs 0.3 mM H2O2 treated condition. […] MLO-Y4 cells were seeded and incubated until 60% cell density. The cells were incubated with Freestyle293 medium for 4 hours and were treated with indicated concentrations of irisin for 16 hours. Sclerostin mRNA level was analyzed by qRT-PCR. Cyclophilin was used as a control house-keeping gene.\nMLO-Y4 cells were incubated in serum free medium for 3 hours followed by treatment of indicated concentrations of irisin for indicated time (FIG. 6A), or followed by treatment of 0 or 10 nM irisin in the presence of indicated integrin inhibitors or their control peptide for 16 hours (FIG. 6B). Sclerostin mRNA level was analyzed by qPCR.\nCertain materials and methods were used to generate the results described herein. […] Cells were stained with Hoechst 33342 (ThermoFisher Scientific, catalog number H3570) and Eth-D1 (ThermoFisher Scientific, catalog number E1169) and analyzed to determine the percentage of cell death using ImageJ. […] Co-precipitated irisin was analyzed by immunoblot analysis against flag tag (Sigma Aldrich, catalog number A8592). […] Sclerostin mRNA level was analyzed by qPCR (FIG. 7A). […]",
  "note": "Entries after “also recorded” stand apart in the source; their conditions may differ.",
  "data": [
    {"molecule": "B1", "values": [
      {"measurement": "sclerostin mRNA level", "result": "increased; also recorded: raised the mRNA level of sclerostin in the osteocyte cultures in a dose-dependent manner"}
    ]}
  ]
}
